# T1: raver1 RRM1-3 (UniProt Q8IY67 39-321)
# T1 sequence: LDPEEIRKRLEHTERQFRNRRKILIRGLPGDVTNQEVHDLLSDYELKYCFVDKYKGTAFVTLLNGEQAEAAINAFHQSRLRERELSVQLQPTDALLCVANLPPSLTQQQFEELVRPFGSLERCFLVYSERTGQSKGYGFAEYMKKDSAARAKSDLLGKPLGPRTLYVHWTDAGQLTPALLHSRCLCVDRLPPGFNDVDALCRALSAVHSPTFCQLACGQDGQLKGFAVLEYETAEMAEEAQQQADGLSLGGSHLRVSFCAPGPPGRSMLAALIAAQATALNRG
# T2: raver1 RRM2-RRM3 (UniProt Q8IY67 129-321)
# T2 sequence: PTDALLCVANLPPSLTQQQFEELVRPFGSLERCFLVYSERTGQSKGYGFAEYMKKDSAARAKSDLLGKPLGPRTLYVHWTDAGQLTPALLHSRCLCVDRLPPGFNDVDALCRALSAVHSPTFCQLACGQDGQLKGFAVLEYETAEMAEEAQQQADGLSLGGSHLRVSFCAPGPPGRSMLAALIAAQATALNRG
# T3: full-length human metavinculin (human, UniProt P18206 1-1134)
# T3 sequence (looked up): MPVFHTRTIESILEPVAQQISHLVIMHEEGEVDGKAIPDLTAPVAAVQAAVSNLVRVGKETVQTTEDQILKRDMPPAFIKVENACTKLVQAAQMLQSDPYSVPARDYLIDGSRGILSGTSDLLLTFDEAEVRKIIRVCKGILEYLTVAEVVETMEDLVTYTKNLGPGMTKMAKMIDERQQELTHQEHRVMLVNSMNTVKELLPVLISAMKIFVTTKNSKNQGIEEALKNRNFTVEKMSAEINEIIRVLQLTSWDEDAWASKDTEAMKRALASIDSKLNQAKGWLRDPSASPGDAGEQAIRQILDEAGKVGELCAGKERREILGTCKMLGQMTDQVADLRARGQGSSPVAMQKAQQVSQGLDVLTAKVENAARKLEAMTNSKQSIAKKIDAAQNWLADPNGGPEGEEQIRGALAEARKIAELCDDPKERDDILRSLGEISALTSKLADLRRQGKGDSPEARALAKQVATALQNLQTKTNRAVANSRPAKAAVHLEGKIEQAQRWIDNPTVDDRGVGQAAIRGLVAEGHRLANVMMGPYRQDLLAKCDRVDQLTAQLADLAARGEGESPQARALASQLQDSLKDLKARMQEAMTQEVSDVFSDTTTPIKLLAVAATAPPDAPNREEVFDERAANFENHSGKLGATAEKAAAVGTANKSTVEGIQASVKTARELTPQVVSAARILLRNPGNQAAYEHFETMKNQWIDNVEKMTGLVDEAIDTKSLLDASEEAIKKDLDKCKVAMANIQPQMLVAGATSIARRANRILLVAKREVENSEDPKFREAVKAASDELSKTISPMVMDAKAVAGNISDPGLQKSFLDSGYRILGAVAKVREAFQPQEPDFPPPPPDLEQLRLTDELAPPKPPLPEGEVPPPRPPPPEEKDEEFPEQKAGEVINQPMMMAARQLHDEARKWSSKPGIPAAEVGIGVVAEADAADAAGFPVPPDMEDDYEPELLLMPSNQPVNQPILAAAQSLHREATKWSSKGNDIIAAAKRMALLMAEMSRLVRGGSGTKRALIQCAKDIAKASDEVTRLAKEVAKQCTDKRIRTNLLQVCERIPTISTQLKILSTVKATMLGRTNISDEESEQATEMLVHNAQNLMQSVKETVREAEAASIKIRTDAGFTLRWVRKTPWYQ
# B1: MVt (metavinculin tail domain, residues 856-1134) (domain or fragment, human, UniProt P18206 856-1134, looked up)
# chain: DELAPPKPPLPEGEVPPPRPPPPEEKDEEFPEQKAGEVINQPMMMAARQLHDEARKWSSKPGIPAAEVGIGVVAEADAADAAGFPVPPDMEDDYEPELLLMPSNQPVNQPILAAAQSLHREATKWSSKGNDIIAAAKRMALLMAEMSRLVRGGSGTKRALIQCAKDIAKASDEVTRLAKEVAKQCTDKRIRTNLLQVCERIPTISTQLKILSTVKATMLGRTNISDEESEQATEMLVHNAQNLMQSVKETVREAEAASIKIRTDAGFTLRWVRKTPWYQ
# B2: raver1 RRM1-3 domains (residues 39-321) (domain or fragment, human, UniProt Q8IY67 39-321, looked up)
# chain: T1 sequence
# How the values were obtained:
# [1] = molecular target: B2; experiment: native gel or EMSA
# raver1 RRM1-3 = molecular target: T1, raver1 RRM1-3; experiment: EMSA
# raver1 RRM2-RRM3 = molecular target: T2, raver1 RRM2-RRM3; experiment: EMSA
# [2] = molecular target: metavinculin tail MVt;raver1 RRM1-3 (Homo sapiens;Homo sapiens?, UniProt P18206;Q8IY67 856-1134;39-321, |); experiment: EMSA
# [3] = molecular target: T3, full-length human metavinculin; experiment: native gel or EMSA
binder,measurement,setting,value
B1,binding result,[1],binds
UCAUGCAGUCUG (ssRNA) [vinculin RNA 3089-3100],binding result,raver1 RRM1-3,binds
same,binding result,raver1 RRM2-RRM3,no binding
same,binding result,[2],binds
B2,binding result,[3],binds

# Source: paper PMC3835166 (Journal of molecular biology, 2012)
